Data on 4 molecules can be found in patent US20080124758A1, “Transmembrane domain removed recombinant human tyrosinase and method of producing the same” (Chung-Ang University Industry-Academy Cooperation Foundation, priority 2006, published 2008).

Series [1] can be described thus: Dopa oxidase activity of human tyrosinase (method of Fling et al., dopachrome at 475 nm). Type of series: biochemical. How it is done: (§1) The measurement of the dopa oxidase activity was conducted by the method of Fling et al. (Fling et al. J. Biol. Chem. 238: 2045-2053, 1963). The transformation of L-dopa which was the substrate of dopa oxidase into a brown product of dopachrome by tyrosinase was measured at 475 nm. […] 3 mM of L-dopa was added into 50 mM of tris-HCl buffer solution (pH 7.5) and incubated at 370 for 10 minutes. Then, 30 μl of human tyrosinase was added and the absorbance change was measured at 475 nm for 3 minutes. At this time, the unit of the activity of the enzyme was defined as follows. When 1 μmole of dopachrome was produced for 1 minute, this activity was defined as 1 unit (μmole/min). Specific activity was defined as 1 unit per 1 mg enzyme.

A short description of series [2]: Influence of L-tyrosine concentration, Km by Lineweaver-Burk plot. The series is classed as biochemical. How it is done: (§2) The measuring of the tyrosine hydroxylase activity was conducted according to a method of Husain et al. (Husain et al., J. Invest. Dermatol. 78: 243-252, 1982). Hydroxylation was conducted within an L-Dopa concentration range of 0-30 mM. A standard curve with respect to L-dopa was obtained. Using the standard curve, the amount of L-dopa produced after the reaction was determined. The reaction solution was prepared by adding 100 μM of L-tyrosine, L-dopa of each concentration, 4 mM of ascorbic acid and 100 μl of human tyrosinase into 50 mM Potassium phosphate buffer solution (pH 6.8) to obtain 2.5 ml of the solution. After that, the reaction was conducted at 37° C. for 3 hours. At this time, a reaction was conducted without adding the purified human tyrosinase as a control. The product was subjected to excitation at 360 nm and then was subjected to an emission at 490 nm by a method of Ram et al. (Ram et al., J. Biol. Chem. 267: 23707-23712, 1992). The intensity of the emission was measured. The measured value was converted into the concentration of L-dopa and the enzyme activity was measured. The specific activity with respect to the tyrosine hydroxylase activity of the purified human tyrosinase of the present invention was determined as the created mol number (mmol) of the L-dopa with respect to the amount of the enzyme (μg) per hour.
The concentration of the substrate, L-tyrosine was given in a range of 0.01-1 mM, and the influence of the substrate concentration onto the recombinant human tyrosinase prepared by example 2 was evaluated. It is conducted by the same method of measuring the tyrosine hydroxylase activity explained in the experiment 1. The Km value of the recombinant human tyrosinase according to the present invention was calculated by the Lineweaver-Burk Plot (Lineweaver et al., J. Am, Chem. Soc., 56; 658-666, 1934).

Series [3] in a line: Tyrosine hydroxylase activity of human tyrosinase (method of Husain et al., fluorescence of L-dopa formed). The series is classed as biochemical. The settings on record: for Increase of specific tyrosine hydroxylase activity of the His-bind purified enzyme compared to the crude extract: His-bind resin purified vs crude extract. How it is done: as §2
A short description of series [4]: Influence of L-dopa concentration, Km by Lineweaver-Burk plot. The series is classed as biochemical. The conditions noted are these: L-dopa 0.05-5 mM. How it is done: as §1, with “Specific activity was defined as 1 unit per 1 mg enzyme.” left out
The concentration of the substrate, L-tyrosine was given in a range of 0.01-1 mM, and the influence of the substrate concentration onto the recombinant human tyrosinase prepared by example 2 was evaluated. […] The Km value of the recombinant human tyrosinase according to the present invention was calculated by the Lineweaver-Burk Plot (Lineweaver et al., J. Am, Chem. Soc., 56; 658-666, 1934).
The concentration of L-dopa, which is another substrate of the human tyrosinase was given in a range of 0.05-5 mM and the influence of the substrate concentration with respect to the recombinant human tyrosinase prepared in example 2 was examined. The dopa oxidase activity is measured by the same method of experiment 2. […]

For series [5] the following is noted: read-out: Km value to L-tyrosine, cited from earlier work.
The conditions of series [6]: literature value, Spritz et al. 1997; cited from earlier work.
The mark [7] stands for this setting: purification step: His.bind resin chromatography.
Where [8] appears, read: purification step: crude extract.
The mark [9] stands for this setting: purification step: DEAE-Sephacel chromatography.

Where two headings read alike, the source gives them in different places.

B1: Recombinant human tyrosinase of example 2 (pET-hTyrosinase(TM-)): Human tyrosinase with C-terminal transmembrane domain (55 amino acids) removed, SEQ ID NO: 2, expressed in E. coli with six … (protein)
chain: MHFPRACVSSKNLMEKECCPPWSGDRSPCGQLSGRGSCQNILLSNAPLGPQFPFTGVDDRESWPSVFYNRTCQCSGNFMGFNCGNCKFGFWGPNCTERRLLVRRNIFDLSAPEKDKFFAYLTLAKHTISSDYVIPIGTYGQMKNGSTPMFNDINIYDLFVWMHYYVSMDALLGGSEIWRDIDFAHEAPAFLPWHRLFLLRWEQEIQKLTGDENFTIPYWDWRDAEKCDICTDEYMGGQHPTNPNLLSPASFFSSWQIVCSRLEEYNSHQSLCNGTPEGPLRRNPGNHDKSRTPRLPSSADVEFCLSLTQYESGSMDKAANFSFRNTLEGFASPLTGIADASQSSMHNALHIYMNGTMSQVQGSANDPIFLLHHAFVDSIFEQWLRRHRPLQEVYPEANAPIGHNRESYMVPFIPLYRNGDFFISSKDLGYDYSYLQDSDPDSFQDYIKSYLEQASRI
modifications: C-terminal His6 tag; Human tyrosinase
A word on the Km: it is the concentration of substrate that gives half-maximal velocity. Regarding B1, the “Purification degree (dopa oxidase specific activity relative to crude extract)” value in series [1] (setting [7]) came to 46 fold; in series [1] (setting [8]), 1.0 fold. Moreover, the entries for the “Specific activity (dopa oxidase)” value in series [1] (setting [7]) and in series [1] (setting [8]) were 807 units/mg and 17.7 units/mg, respectively. Besides, the “Total activity (dopa oxidase)” value in series [1] (setting [7]) is given as 2977 units; in series [1] (setting [8]) it was 6200 units. Moreover, the “Specific dopa oxidase activity, times higher than recombinant human tyrosinase of comparative example 1” value in series [1] (vs Korean Patent Application No. 2001-0057379 (comparative example 1)) was “about 31 times”. For the same molecule, in series [1] (vs Korean Patent Application No. 2002-0073728 (comparative example 2)), the “Specific dopa oxidase activity, times higher than recombinant human tyrosinase of comparative example 2” value was “about 1.2 times”. In series [2], the “Affinity onto the substrate L-tyrosine, times higher” value is no less than 100 times. Also, the Km in series [2] (L-tyrosine 0.01-1 mM, Lineweaver-Burk plot) amounted to 1.32 µM; in series [4], 340 µM. In series [2] (at the most, vs 0.17 mM, 2.34 μM and 0.2 mM), the “Km to L-tyrosine, times lower than Km of earlier tyrosinases” value is listed as “about 130 times”. In series [3], the “Increase of specific tyrosine hydroxylase activity of the His-bind purified enzyme compared to the crude extract” value is recorded as “about 52 times”. Moreover, the “Specific activity (tyrosine hydroxylase)” value stood at 108.3 ± 2.10 µmol/mg/h in series [3] (purification step: His.bind resin chromatography (finally purified), listed as Recombinant human tyrosinase of example 2 (pET-hTyrosinase(TM-))); 108.3 ± 2.10 µmol/mg/h in series [3] (purification step: His.bind resin chromatography (finally purified), listed as recombinant human tyrosinase); 2.1 ± 0.05 µmol/mg/h in series [3] (setting [8]).

B2: Recombinant human tyrosinase of comparative example 2 (pET-hTyr): Recombinant human tyrosinase produced in E. coli with pET-hTyr vector by the method of Korean Patent Application No. 2002-0073728 (protein, UniProt P14679 19-529, looked up)
Tyrosinase: HFPRACVSSKNLMEKECCPPWSGDRSPCGQLSGRGSCQNILLSNAPLGPQFPFTGVDDRESWPSVFYNRTCQCSGNFMGFNCGNCKFGFWGPNCTERRLLVRRNIFDLSAPEKDKFFAYLTLAKHTISSDYVIPIGTYGQMKNGSTPMFNDINIYDLFVWMHYYVSMDALLGGSEIWRDIDFAHEAPAFLPWHRLFLLRWEQEIQKLTGDENFTIPYWDWRDAEKCDICTDEYMGGQHPTNPNLLSPASFFSSWQIVCSRLEEYNSHQSLCNGTPEGPLRRNPGNHDKSRTPRLPSSADVEFCLSLTQYESGSMDKAANFSFRNTLEGFASPLTGIADASQSSMHNALHIYMNGTMSQVQGSANDPIFLLHHAFVDSIFEQWLRRHRPLQEVYPEANAPIGHNRESYMVPFIPLYRNGDFFISSKDLGYDYSYLQDSDPDSFQDYIKSYLEQASRIWSWLLGAAMVGAVLTALLAGLVSLLCRHKRKQLPEEKQPLLMEKEDYHSLYQSHL
Take B2: the “Purification degree (dopa oxidase specific activity relative to crude extract)” value is reported as 5 fold in series [1] (setting [9]), 49 fold in series [1] (setting [7]) and 1.0 fold in series [1] (setting [8]). The “Specific activity (dopa oxidase)” value in series [1] (setting [9]) is on record as 69.7 units/mg; in series [1] (setting [7]) it was 699 units/mg; in series [1] (setting [8]) it was 14.3 units/mg. Further, the “Total activity (dopa oxidase)” value came to 4460 units in series [1] (setting [9]), 1922 units in series [1] (setting [7]) and 5700 units in series [1] (setting [8]). For the same molecule, in series [3], the “Increase of specific tyrosine hydroxylase activity of the His-bind purified enzyme compared to the crude extract” value is reported as “about 49 times”. The “Specific activity (tyrosine hydroxylase)” value in series [3] (setting [9]) is 11.0 ± 0.12 µmol/mg/h; in series [3] (purification step: His.bind resin chromatography (finally purified)), 88.0 ± 1.50 µmol/mg/h; in series [3] (setting [8]) it was 1.8 ± 0.05 µmol/mg/h. Besides, the Km in series [5] (value from previous filing) is 2.34 µM.

B3: Recombinant human tyrosinase of comparative example 1 (pHis-hTyr): Recombinant human tyrosinase produced in E. coli with pHis-hTyr vector by the method of Korean Patent Application No. 2001-0057379 (protein, UniProt P14679 19-529, looked up)
Tyrosinase: B2 Tyrosinase
modifications: His tag
Take B3: in series [1] (setting [9]), the “Purification degree (dopa oxidase specific activity relative to crude extract)” value was found to be 3.5 fold, the “Specific activity (dopa oxidase)” value came out at 1.4 units/mg and the “Total activity (dopa oxidase)” value came to 64 units. In addition, in series [1] (setting [7]), the “Purification degree (dopa oxidase specific activity relative to crude extract)” value was determined as 65.0 fold, the “Specific activity (dopa oxidase)” value was 26.0 units/mg and the “Total activity (dopa oxidase)” value came to 26 units. Moreover, in series [1] (setting [8]), the “Purification degree (dopa oxidase specific activity relative to crude extract)” value is 1.0 fold, the “Specific activity (dopa oxidase)” value is given as 0.4 units/mg and the “Total activity (dopa oxidase)” value is 136 units. Also, in series [5] (value from previous filing or literature), the Km was 170 µM.

B4: purified tyrosinase from human HeLa cell: Tyrosinase purified from human HeLa cell (Spritz et al., 1997) (protein, UniProt P14679 19-529, looked up)
Tyrosinase: B2 Tyrosinase
For B4, the “Specific activity with respect to tyrosine hydroxylase activity” value in series [6] is 22.3±0.01 μmol/1 g/h.
